System: isolated pancreatic islets from mice
Assay: RNAseq gene expression in isolated pancreatic islets of GCGR antibody treated mice (Table 5)
Type: in vivo, mouse
Settings: 10 mg/kg, 21 days
Protocol: Mouse islets were isolated by density gradient separation after perfusing pancreas with Liberase TL (Roche, Indianapolis) through the common bile duct. Following a 13 min digestion at 37° C., the pancreas solution was washed and filtered through a 400-μm wire mesh strainer and islets were separated by Histopaque gradient centrifugation (Sigma-Aldrich). Isolated islets were cultured overnight in RPMI-1640 medium supplemented with 10% (v/v) FBS, 10 mM HEPES, 50 μM β-mercaptoethanol, 1.0 mM sodium-pyruvate, 100 U/mL penicillin and 100 μg/mL streptomycin at 37° C. with a 5% CO2 in air atmosphere.
Total RNA was purified from all samples using MagMAX™-96 for Microarrays Total RNA Isolation Kit (Ambion by Life Technologies) according to manufacturer's specifications. Genomic DNA was removed using MagMAX™Turbo™DNase Buffer and TURBO DNase from the MagMAX kit listed above (Ambion by Life Technologies). mRNA was purified from total RNA using Dynabeads® mRNA Purification Kit (Invitrogen). Strand-specific RNA-seq libraries were prepared using ScriptSeq™ mRNA-Seq Library Preparation Kit (Epicentre). Twelve-cycle PCR was performed to amplify libraries. Sequencing was performed on Illumina HiSeq®2000 (Illumina) by multiplexed single-read run with 33 cycles.
Raw sequence data (BCL files) were converted to FASTQ format via Illumina Casava 1.8.2. Reads were decoded based on their barcodes and read quality was evaluated with FastQC (http://www.bioinformatics.babraham.ac.uk/projects/fastqc/). Reads were mapped to the mouse transcriptome (NCBI GRCh37) using CLC Genomics Workbench Version 7.0 (CLCbio) or TopHat2 (Version 2.0.10) allowing two mismatches. Reads mapped to the exons of a gene were summed at the gene level. To identify differentially expressed genes, the statistical significance (p-value) of the differential expressions was assessed with DESeq package (version 1.6 or 2.0). […]

[1] = α-GCGR vs Control, isolated islets

B1: α-GCGR: potent monoclonal GCGR blocking antibody, HCVR/LCVR SEQ ID NOs: 86/88 (antibody, V domains shown)
VH: EVQLVESGGGLVQPGGSLRLSCAASGFTFSNYLMNWVRQAPGKGLEWLANIQEDGIEKYYVDSVKGRFTISRDNAKNSLYLQMNSLRAEDTAVYYCAREPSHYDILTGYDYYYGMDVWGQGTTVTVS
VL: DIQMTQSPSSLSASVGDRVTITCRASQGIRNDLGWYQQKPGKAPKRLIYAASSLQSGVPSRFSGSGSGTEFILTVSSLQPEDFATYYCLQYNSNPFTFGPGTKVDIK
Slc38a5 gene expression in isolated pancreatic islets (mice, vs control antibody): most upregulated gene | 1700086L19Rik Fold change [1]: 1.89 | 1810011O10Rik Fold change [1]: −1.64 | 1810041L15Rik Fold change [1]: 1.67 | 4930539E08Rik Fold change [1]: 1.96 | 9030617O03Rik Fold change [1]: 1.72 | AW551984 Fold change [1]: 1.69 | Acta1 Fold change [1]: −1.79 | Agpat4 Fold change [1]: 1.73 | Agt Fold change [1]: 1.78 | Ang Fold change [1]: 1.62 | Ano1 Fold change [1]: −1.78 | Anxa3 Fold change [1]: −1.53 | Anxa13 Fold change [1]: −1.60 | Apoa2 Fold change [1]: 1.68 | Apod Fold change [1]: 1.53 | Apol7a Fold change [1]: −1.51 | Arg1 Fold change [1]: 1.53 | Arx Fold change [1]: 1.59 | Asb11 Fold change [1]: −1.51 | Avpr1b Fold change [1]: 2.54 | Basp1 Fold change [1]: 1.65 | Blnk Fold change [1]: 1.55 | Bok Fold change [1]: −1.85 | Car9 Fold change [1]: −1.55 | Cdc42ep1 Fold change [1]: −1.54 | Clec2d Fold change [1]: 1.82 | Clic6 Fold change [1]: −1.69 | Clu Fold change [1]: −1.80 | Cnih2 Fold change [1]: 1.55 | Cobl Fold change [1]: 1.58 | Ctse Fold change [1]: −1.50 | Dbpht2 Fold change [1]: 1.87 | Dmbt1 Fold change [1]: −1.61 | Dpp6 Fold change [1]: 1.79 | Drc1 Fold change [1]: 1.96 | Eda2r Fold change [1]: 1.59 | Eef1a2 Fold change [1]: 2.18 | Ehf Fold change [1]: 1.61 | Etv1 Fold change [1]: 1.62 | F5 Fold change [1]: 1.51 | Ffar4 Fold change [1]: 1.78 | Fgd3 Fold change [1]: −1.67 | Fgl2 Fold change [1]: 1.65 | Gamt Fold change [1]: −1.50 | Gbp8 Fold change [1]: 1.84 | Gbp9 Fold change [1]: 1.74 | Gc Fold change [1]: 1.83 | Gcg Fold change [1]: 3.55 | Gcnt4 Fold change [1]: 1.58 | Gfra1 Fold change [1]: 1.53 | Gfra3 Fold change [1]: 2.71 | Gm609 Fold change [1]: 2.04 | Gm20554 Fold change [1]: 1.67 | Gng2 Fold change [1]: 1.63 | Gpr119 Fold change [1]: 1.54 | Gpx3 Fold change [1]: 2.86 | Hspb1 Fold change [1]: −1.54 | Ifih1 Fold change [1]: 2.33 | Igsf23 Fold change [1]: −1.65 | Irx1 Fold change [1]: 1.83 | Irx2 Fold change [1]: 2.00 | Itgb4 Fold change [1]: −1.69 | Jchain Fold change [1]: 1.57 | Kcna2 Fold change [1]: −1.68 | Kcnab3 Fold change [1]: −1.73 | Kcnf1 Fold change [1]: −1.56 | Kcnk3 Fold change [1]: 2.23 | Klb Fold change [1]: 1.77 | Klhl13 Fold change [1]: 1.91 | Krt19 Fold change [1]: −1.61 | Krt20 Fold change [1]: −1.63 | Krt23 Fold change [1]: −1.96 | Lamb3 Fold change [1]: −1.71 | Mafb Fold change [1]: 1.86 | Mamld1 Fold change [1]: 1.75 | Mapk13 Fold change [1]: −1.50 | Matn2 Fold change [1]: −1.55 | Ndst4 Fold change [1]: 2.71 | Necab2 Fold change [1]: −1.50 | Nefm Fold change [1]: 1.53 | Npr1 Fold change [1]: −1.65 | Nptxr Fold change [1]: −1.57 | Nsg2 Fold change [1]: 1.56 | Ntn1 Fold change [1]: −1.61 | Nudt11 Fold change [1]: 2.00 | Nyap1 Fold change [1]: 1.77 | Ocrl Fold change [1]: 1.57 | Oit1 Fold change [1]: 1.71 | Olfm3 Fold change [1]: 1.96 | Oxtr Fold change [1]: 1.53 | Pdk4 Fold change [1]: 2.83 | Peg10 Fold change [1]: 2.06 | Pla2g2d Fold change [1]: 1.50 | Ptf1a Fold change [1]: −1.95 | Ptprd Fold change [1]: 1.62 | Ptprg Fold change [1]: 1.52 | Rasd1 Fold change [1]: −1.54 | Rbms3 Fold change [1]: 1.51 | Rbp4 Fold change [1]: 1.64 | Rcn1 Fold change [1]: 1.54 | Rragb Fold change [1]: 1.67 | Sema3e Fold change [1]: 1.81 | Serpinb6b Fold change [1]: −1.68 | Serpine2 Fold change [1]: 2.80 | Serping1 Fold change [1]: 1.71 | Sftpd Fold change [1]: 2.07 | Sgce Fold change [1]: 1.84 | Sh2d4a Fold change [1]: −1.52 | Sh3bgr Fold change [1]: 1.54 | Slc38a3 Fold change [1]: −1.54 | Slc38a5 Fold change [1]: 5.54 | Smarca1 Fold change [1]: 1.88 | Spns2 Fold change [1]: −1.76 | St8sia1 Fold change [1]: −1.67 | Syt16 Fold change [1]: 1.63 | Tead2 Fold change [1]: −1.60 | Tesc Fold change [1]: 1.54 | Tmsb15b1 Fold change [1]: 1.60 | Tspan1 Fold change [1]: −2.50 | Ttr Fold change [1]: 4.27 | Vnn1 Fold change [1]: −1.50 | Vwde Fold change [1]: 2.23 | Wfdc16 Fold change [1]: 1.51 | Wnk3 Fold change [1]: 2.33

Reference: patent US20190248888A1, “METHODS OF LOWERING BLOOD GLUCOSE LEVELS” (Regeneron Pharmaceuticals, Inc., priority 2016, published 2019)
